{"source": "the nanobody polyreactivity screen of Harvey et al. (2022)"}
{"assay": "yeast display, Sf9 membrane polyspecificity reagent, FACS + sequencing; frameworks hold sequencing errors", "method_in_brief": "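Polyreactivity labels are assigned by the sorting gate from which each nanobody was recovered. The gates were low and high (top ~1%), set on anti-HA fluorescence for expression and streptavidin fluorescence for reagent binding. Before sorting, galactose-induced (36–48 hours) yeast display cells were stained for 1 hour at 4 °C with 10% biotinylated, detergent-solubilized Sf9 membrane reagent.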"}
{"sequence": "QVQLVESGGGLVQAGGSLRLSCAASGSTFGYYAMGWYRPAPGKERELVAAISSSAGTTYYADSVKGCFTISRDNAKNTVYLLMNRLKPEDTAVFYCAADAVSGHEYWGQGTQVTVSS", "polyreactivity (PSR sort gate)": "low polyreactivity"}
{"sequence": "QVQLVESGGGLVQAGGSLRLSCAASGSTFGYYAMGWYRQAPGKERELVAAIRWCGGSTYADSVKGRFTISRDNAKNTVYLQMNSLKPEDTEVYYCAQYRWYGSVLGGYWGQGTQVTVSS", "polyreactivity (PSR sort gate)": "high polyreactivity"}
{"sequence": "QVQLVESGGGLVQAGGSLRLSCAASGSTFGYYAMGWYRQAPGKERELVAAISGSGGSTYYADSVKGRFTISRDNAKNTVYLQMNSLKPEDTAVYYCAATFHRLPKWGSPYYYWGQGTQVTVSS", "polyreactivity (PSR sort gate)": "high polyreactivity"}
{"sequence": "QVQLVESGGGLVQAGGSLRLSCAASGSTFGYYAMGWYRQAPGKERELVAAISKRGGSTYYADSVKGRFTISRDNAKNTVYLQMNSLKPEDTAVYYCAAAPYKYPGDYWGQGTQVTVSS", "polyreactivity (PSR sort gate)": "high polyreactivity"}
{"sequence": "QVQLVESGGGLVQAGGSLRLSCAASGSTFGYYAMGWYRQAPGKERELVAAISVRGGRTYYADSVKGRFTISRDNAKNTVYLQMNSLKPEDTAVYYCATLLPGLGRYGYDYWGHGTQVTVSS", "polyreactivity (PSR sort gate)": "high polyreactivity"}
{"sequence": "QVQLVESGGGLVQAGGSLRLSCAASGSTFGYYAMGWYRQAPGKERELVAAITRGGGRTYYADSVKGRFTISRDNAKNTVYLQMNSLKPEDTAVYYCAAVEPTREYYYWGQGTQVTVSS", "polyreactivity (PSR sort gate)": "high polyreactivity"}
{"sequence": "QVQLVESGGGLVQAGGSLRLSCAASGSTFGYYAMGWYRQAPGKERELVAAITSSGGSTYYSDSVKGRFTISRDNAKNTVYLQMYSMNPEDTAVYDCNTRWCFYIDPFYYEYDYWGQGSQVTVSS", "polyreactivity (PSR sort gate)": "low polyreactivity"}
{"sequence": "QVQLVESGGGLVQAGGSLRLSCAASGSTFGYYAMGWYRQAPGKERELVATITKRGGSTYADSVKGRFTISRDNAKNTVYLQMNSLKPEDTAVYYCAKLPFEDYDYWGQGTQVTVSS", "polyreactivity (PSR sort gate)": "low polyreactivity"}
{"sequence": "QVQLVESGGGLVQAGGSLRLSCAASGSTFGYYAMGWYRQAPGKERELVATITWSGGSTNYADSVKGRFTISRDNAKNTVYLQMNSLKPEDTAVYYCAADLKYWYFGLAFIEVDYWGQGTQVTVSS", "polyreactivity (PSR sort gate)": "low polyreactivity"}
{"sequence": "QVQLVESGGGLVQAGGSLRLSCAASGSTFGYYAMGWYRQAPGKESELVAAISAGGGSTYYADSVKGRFTISRDNAKNTVYLQLNSLKPEDTAVYFCAARRPHMPVKTYDYWGQGTLVTVSS", "polyreactivity (PSR sort gate)": "high polyreactivity"}
{"sequence": "QVQLVESGGGLVQAGGSLRLSCAASGSTFGYYARGWYRQAPGKERELVAAISWSGTRTYYADSVKGRFTISRDNATNTVYLQMNSLKPEDTAVYYCAVRISRPRVYYYWGQGTQVTVSS", "polyreactivity (PSR sort gate)": "high polyreactivity"}
{"sequence": "QVQLVESGGGLVQAGGSLRLSCAASGSTFGYYGMGWYRQAPGKERELVAAISTGGRTNYADSVKGRFTISRDNAKNTVYLQMNSLKPEVTAVYYCAADFLCTAYRPSWYRFDYWGQGTQVTVSS", "polyreactivity (PSR sort gate)": "low polyreactivity"}
{"sequence": "QVQLVESGGGLVQAGGSLRLSCAASGSTFGYYTKGWYRQAPGKERELVAAITWSGGSTYYADSVKGRFTISRDNAKNTVYLQMNSLKPEDTAVYYCAADDYWTPFGYWGQGTQVTVSS", "polyreactivity (PSR sort gate)": "low polyreactivity"}
{"sequence": "QVQLVESGGGLVQAGGSLRLSCAASGSTFGYYTMGWYRQAPGKERELVAAISRSGGRTYYADSVKGRFTISRDNAKNAVYLQMNSLKPEDTAVYYCNADGTRYAGDDYWGQGTQVTVSS", "polyreactivity (PSR sort gate)": "high polyreactivity"}
{"sequence": "QVQLVESGGGLVQAGGSLRLSCAASGSTFGYYTMGWYRQAPGKERELVAAISYSGGRTFYADSVKGRFTISRDNAKNTVFLQMHCLKPEDTAVYYCNNRYIPSFLSHLDYWGQGTHVTVSS", "polyreactivity (PSR sort gate)": "high polyreactivity"}
{"sequence": "QVQLVESGGGLVQAGGSLRLSCAASGSTFHFYAMGWYRQAPGKERELVASITSRGGNTHYADSVKGRFTISRDNAKNTVYLQMNRLKPEDTAVYYCAARGGWYGTYDYLGQGTQVTVSS", "polyreactivity (PSR sort gate)": "low polyreactivity"}
{"sequence": "QVQLVESGGGLVQAGGSLRLSCAASGSTFHGYALGWYRQAPGKERELVAAISWSGGRTYYADSVKGRFTISRDNAKNTVYLQMNSLKPEDTAVYYCNKDGYYRWQSTYLANRYDYWGQGTQVTVSS", "polyreactivity (PSR sort gate)": "high polyreactivity"}
{"sequence": "QVQLVESGGGLVQAGGSLRLSCAASGSTFHKYAMGWYRQAPGKEREFVAAISWSGGSTYYADSVKGRFTISRDNAKNTVYLQMNSLKPEDTAVYYCAAKGGVSRARWRSIFWHDYWGQGTQVTVSS", "polyreactivity (PSR sort gate)": "high polyreactivity"}
{"sequence": "QVQLVESGGGLVQAGGSLRLSCAASGSTFHLYAMGWYRQAPGKERELVAAITRGGGSTYYADSVKGRFTISRDYAKNTVYLQMNSLKPEDTAVYYCNARGPSSYRYEYWGQGTQVTVSS", "polyreactivity (PSR sort gate)": "high polyreactivity"}
{"sequence": "QVQLVESGGGLVQAGGSLRLSCAASGSTFHPYAMGRYRQAPGKERELVAAITWRVGSTYYADSVKGRFTISRDNAKNSVYLQMNSLKPEDTAVYYCAVSYLSTLGRSRYDYWGQGTQVTVSS", "polyreactivity (PSR sort gate)": "low polyreactivity"}
{"sequence": "QVQLVESGGGLVQAGGSLRLSCAASGSTFHRYTMGWYRQAPGKERELVAAISSGVNTDYADSVKGRFTISRDNAKNTVYLQMNSLKPEDTEVYYCNTSFGSPQVVRYEYWGQGTQVTVSS", "polyreactivity (PSR sort gate)": "low polyreactivity"}
{"sequence": "QVQLVESGGGLVQAGGSLRLSCAASGSTFHSNAMGWYRQAPGKERELVAAISQGGGRTYYADSVKGRFSISRDNAKNTVYLQMNSLKPEDTAVYYCNRRTRGLIDGGMDYWGQGTQGTVSS", "polyreactivity (PSR sort gate)": "low polyreactivity"}
{"sequence": "QVQLVESGGGLVQAGGSLRLSCAASGSTFHYYAMGWYRQAPGKERELVAAINSGARTYYADSVKGRFTISRDNAKNTVYLQMNSLKTEDTAVYYCNKAFQWSGGQVSYDYWGQGTQVTVSS", "polyreactivity (PSR sort gate)": "low polyreactivity"}
{"sequence": "QVQLVESGGGLVQAGGSLRLSCAASGSTFHYYARGWYSQAPGKDRELVAAIRTSGGSTYYADSVKGRFTISRDNEKNTVYLLMNCLKPEDTAVYYCNRVLGYPYGVDYWGQGTQVTVSS", "polyreactivity (PSR sort gate)": "high polyreactivity"}
{"sequence": "QVQLVESGGGLVQAGGSLRLSCAASGSTFIDYAMGWYRQAPGKERELVAAITNGGNTKYADSVKGRFTISRDNAKNTVYLLMISLNPEDTAVYYCAREPSIFTPSYDYWGQGTQVTVSS", "polyreactivity (PSR sort gate)": "low polyreactivity"}
{"sequence": "QVQLVESGGGLVQAGGSLRLSCAASGSTFIGFAMGWYRQAPGKERELVAAITSDGRTNYADSVKGRFTISRDNAKNTVYLQMNSLKPEDTAVYYCAAQILGTFYEYDYWGQGTQVTVSS", "polyreactivity (PSR sort gate)": "low polyreactivity"}
{"sequence": "QVQLVESGGGLVQAGGSLRLSCAASGSTFIGNAMGWYRQAPGKERELVAAITRSGGSTFYADSVKGRFTISRDNAKNTVYLQMNSLKPEDTAVYYCAAKGNPYRVPGSSYPKVNYWGQGTQVTVSS", "polyreactivity (PSR sort gate)": "high polyreactivity"}
{"sequence": "QVQLVESGGGLVQAGGSLRLSCAASGSTFIGSDMGWYRQAPGKERELVAAISYSDGTYYADSVKGRFTISRDNAKNTVYLQMNSLKPEDTAVYYCATSYRDIGSHVGYWGQGTQVTVSS", "polyreactivity (PSR sort gate)": "low polyreactivity"}
{"sequence": "QVQLVESGGGLVQAGGSLRLSCAASGSTFIGYAMGWYRHAPGKERELVAGINWSSGSTNYADSVKGRFTISRDNAKNTVYLQMNSLIPEDTAVYYCAADLYWYAHREEYDYWGQGTQVTVSS", "polyreactivity (PSR sort gate)": "high polyreactivity"}
{"sequence": "QVQLVESGGGLVQAGGSLRLSCAASGSTFILNAMGSYRQAPGKERELVAAISLSGGSTYYADSVKGRFTISRDNAKNTVYLQMNSQKPEDTAVYYCAAEQWYDNYLEYDYWGQGTQVTLSS", "polyreactivity (PSR sort gate)": "high polyreactivity"}
{"sequence": "QVQLVESGGGLVQAGGSLRLSCAASGSTFILYAMGWYRHAPGKERELVAAISRSTGITYYADSVKGRFTISRDNAKNTVYLQMNSLKPEDTAGYYCAADAWGYNDYDASYSTGYEYWGQGTQVTVSS", "polyreactivity (PSR sort gate)": "high polyreactivity"}
{"sequence": "QVQLVESGGGLVQAGGSLRLSCAASGSTFILYAMGWYRQAPGKERELVAAISSDGSTYYADSVKGRFTISRDNAKNTVYLQMNSLKPEDTAVYYCAAYGYDADTGYDYWGLGTQVTVSS", "polyreactivity (PSR sort gate)": "low polyreactivity"}
{"sequence": "QVQLVESGGGLVQAGGSLRLSCAASGSTFINYAKGWYRHAPGKERELVAAYADSVKGRFSISRDNAKNTVYLQMNSLKPEDTAVYYCAARGTIYVLGVPARPVPDGDYWGQGTQVTVSS", "polyreactivity (PSR sort gate)": "low polyreactivity"}
{"sequence": "QVQLVESGGGLVQAGGSLRLSCAASGSTFINYAMGWYRQAPGKERELVATISSNGGSTYYADSVKGRFTISRDNAKNTVYLQMNRLKPEDTAVYYCAADGKQYGFYYWGQGTQVTVSS", "polyreactivity (PSR sort gate)": "low polyreactivity"}
{"sequence": "QVQLVESGGGLVQAGGSLRLSCAASGSTFIRNAMGWYRQAPGKERELVAAISGSGVSTRYADSVKGRFTISRDNAKNTVYLQMNSLKPEDTAVYYCAKRKQYPYTMGYWGQGTQVTVSS", "polyreactivity (PSR sort gate)": "high polyreactivity"}
{"sequence": "QVQLVESGGGLVQAGGSLRLSCAASGSTFISYAMGWSRQAPGKERELVAAISSSTGRTYYADSVKGRVTISRDNAKNTVYLQMNSLKPEDTAVYYCNAVHRYERDYWGQGTQVTVSS", "polyreactivity (PSR sort gate)": "high polyreactivity"}
{"sequence": "QVQLVESGGGLVQAGGSLRLSCAASGSTFIVYAMGWYRQAPGKERELVAAITASGGSTYADSVKGRFTISRDNAKNTVYLQMNSLKPEDTAVYYCAARRWSRKYRKYDYWGQGTQVTVSS", "polyreactivity (PSR sort gate)": "high polyreactivity"}
{"sequence": "QVQLVESGGGLVQAGGSLRLSCAASGSTFIYNAMGWYRQAPGKERELVAGITGSGGSTYYADSVKGRFTISRDNAKNNVYLQMNSLKPEDTAVYYCAADRHIHYTDARMDYWGQGTQVTVSS", "polyreactivity (PSR sort gate)": "low polyreactivity"}
{"sequence": "QVQLVESGGGLVQAGGSLRLSCAASGSTFKAYAMGWYRQAPGKERELVAAITNSDGDTYYADSVKGRFTISRDNAKNTVYLQMNSLKPEDTAVYYCIADTGKWGGNGWYEFDYWGQGTQVTVSS", "polyreactivity (PSR sort gate)": "low polyreactivity"}
{"sequence": "QVQLVESGGGLVQAGGSLRLSCAASGSTFKFNAMGWYRQAPGKETELVATITSRGSRTYYADSVKGRFTISRDNAKNTVYLQMNSLKPEDTAVYYCAARVFRPYGSLYDYWGQGTQVTVSS", "polyreactivity (PSR sort gate)": "high polyreactivity"}
{"sequence": "QVQLVESGGGLVQAGGSLRLSCAASGSTFKFYAMGWYRQAPGKERELVASITSSSGPTYYADSVKGRFTISRDNAKNTVYLQLNSLKPEDTAVDYCAKRPIRYYHLLRGNYWGQGTQVTVSS", "polyreactivity (PSR sort gate)": "low polyreactivity"}
{"sequence": "QVQLVESGGGLVQAGGSLRLSCAASGSTFKFYTMGWYRQAPGKERELVATIDWSGGSTYYADSVKGRFTISRDNAKNTVYLQMNSLKPEDTSVYYCAAYSRSRTTRLGKYYYWGQGTQVTVSS", "polyreactivity (PSR sort gate)": "high polyreactivity"}
{"sequence": "QVQLVESGGGLVQAGGSLRLSCAASGSTFKGNAMGWYRQAPGKERELVAAITFSGGSTYYADSVKGRFTISRDNAKNTVYLQMNSLKPEDTAVYYCAKGEWVYWRPWYEYWGQGTQVTVSS", "polyreactivity (PSR sort gate)": "low polyreactivity"}
